Data reported in patent US20140363844.

Tests used:
[1] = biological target: T1, Presegetalin A1[14,32]
T1 chain: GVPVWAFQAKDVENASAPV

[2] = biological target: T2, Presegetalin A1[14,32] P16p W18A
T2 chain: GVPVAAFQAKDVENASAPV

[3] = biological target: T3, Presegetalin A1[14,32] P16p W18a
T3 chain: GVPVAAFQAKDVENASAPV

[4] = biological target: T4, Presegetalin A1[14,32]A19V
T4 chain: GVPVWVFQAKDVENASAPV

[5] = biological target: T5, Presegetalin A1[14,32]G14A
T5 chain: AVPVWAFQAKDVENASAPV

[6] = biological target: T6, Presegetalin A1[14,32]P16A
T6 chain: GVAVWAFQAKDVENASAPV

[7] = biological target: T7, Presegetalin A1[14,32]V15A
T7 chain: GAPVWAFQAKDVENASAPV

[8] = biological target: T8, Presegetalin A1[14,32]V17A
T8 chain: GVPAWAFQAKDVENASAPV

[9] = biological target: T9, Presegetalin A1[14,32]W18A
T9 chain: GVPVAAFQAKDVENASAPV

B1: Silene vulgaris PCY1-c150 (recombinant) (protein)
chain: MASSAFSKPLNYPPVRRDETVVNDYFGVKVADPYRWLEDQEGEETIEFVDNQVKLADSVLEECELRDKIKQKITDLVNFPRCGVPFKRADKYFHFYNSGLQAQNVLHMQDDLDGKPEVLYDPNLREGGRSGLHQYAVSEDAKYLAFGINSGFSEWLTIKVMRIEDRSVLPDSLSWVKFSGIHWTHDSKGFFFSPYPPATEGLEVGMKTNSSFNQELRYHFLGTDESEDVLCWRDPENPTHHLKSDLTADGKYLLLYISAGCDATNKVYYMDLTTLPNGLEGLRGGKDLLPFKRLIDEFDATYTAIANDGSVFTFLTNKDAPRNKIVRVDLNNPDIWTEVIPESKKDVLESAHAVNGNQLLVRYLSDVKHILEVRDLESGSLLHRLPVDLGVIDGITARPQDSVVFFKFTSFLTPTIIYQCDLKEDSPQLKIFRESVVPEFDRSEFEVKQVFVSAKDGTKIPMFIVARKGISLDGSHPCELHGYGGFSISIKPFFSASRIVILKHLDAVFCVANIRGGGEYGEEWHQAGWREKKQIVFDDFISSAEYLVSSGYTQPQKLSIEGGSNGGLLVAACINQRPDLFGCAQANCGVMDMLRFHKFTLGYLWTSDYGCSEKEEDFNWLIKYSPIHNVRRPWEHSKNPQLQYPAVMILTADHDDRVVPLHSFKLLATLQHVLCTSLEDSPQKNPIIARIERKASHCGRATMKQIDEAADRYAFMAKALRATWTD
[1]
  production of segetalin A (LC/MS): has the same enzymatic activity as that of S. vaccaria PCY1, (FIG. 7d) albeit weaker than that of S. vaccaria PCY1 for production of segetalin A

B2: Dianthus superbus PCY1-c1141 (recombinant) (protein)
chain: MAVSCGFTKTLHYPPVRRDETVVDDYFGLKIADPYRWLEDLNSEETKKFVDDQVKFTESVLEECELIGKVKQKIIDYVSFPRWSVPLRRANKYFHFYNSGLQSQNVYRMQDGLDGKPEVVYDPNLREGGRTGLTLYSVSEDANYFAFGIAEGFTEWLTIRVMRIEDRSMLPDCITGVKHSGIHWTHDNKGFFYCPYPPLEEGQDLMIHPSMSQEVRYHFIGTDQSEDILCWKDTVNPTHHLKSYFTDDGKYFVLYILEGCNNMNKVYCLDLTELPNGPESLRGREGSAPFIKLVDSFDALYTAIANDGSVFTFLTDKDATRRKLVRVDLNNPSVWTDVLPESKDLLESAHAVNGNQLLIRYLSDVKHILELRDLESGSLLHRIPIDIGAVDGTINARRGDSVVFFKFTSILTPSIIYQCDLKNDPPQLKIFRESVVPGFDRSEFEVKQLFAPSKDGTMIPTFVAARKGISLDGSHPCEMHGYGAYGQCMMPTFSASRLVFLKHLGGVFCLANIRGGGEYGVEWHKAGARENKQNSYDDFIASAEFLVSSGYTAPKKICIEGGSNGGLLIAVCITQRPDLFGCAEPNCGPMDMIRFHHFTQGYVVMSEYGSPDKEEEFNWLIKYSPLHNVRRPWEQPGHEQTQYPATMIITADHDDRVVPFHSYKMIATMQHVLCTSLENSPQKFPIICRIQRNASHYGRATMVQIAEVADRYGFMAKALNATWTD
[2]
  cyclic peptide product (LC/MS, MS/MS): S. vaccaria PCY1 and D. superbus PCY1-c1141 made cyclic peptides from both No. 31 and No. 32
[3]
  cyclic peptide product (LC/MS, MS/MS): S. vaccaria PCY1 and D. superbus PCY1-c1141 made cyclic peptides from both No. 31 and No. 32
  cyclization (LC/MS): also demonstrated the ability to cyclize alternating D- and L-amino acid polypeptide substrates (FIG. 12a) in a similar manner to S. vaccaria PCY1
  relative activity (LC/MS): D. superbus PCY1-c1141 was relatively more active on No. 32 than was S. vaccaria PCY1
[1]
  production of segetalin A (LC/MS): show strong enzymatic activity ... similar to that of S. vaccaria PCY1

B3: Dianthus superbus PCY1-c250 (recombinant) (protein)
chain: MASCGFTKPLHYPTARRDETVVDDYFGLKVADPYRWLEDRDSEETKKFVEDQVKFTDSVLEECELIGKVKQKIIDYVSFPRWSVPLRRANKYFHFYNSGLQSQNVYRMQDGLDGKPEVICDPNLREDGRTGLSVYSVSEDAKYFAFGIAEGFTEWLTIRVMRTEDRSMLPDCLTEVKFTTVHWTHDNKGFFYCAYPPLEEGQDHMVHASISQEARYHYLGTDQSEDILCWKDPENPTHHFRSYFTDDGKYFVLYILEGCDKKNKVYCLDLTKLPNGPESLRGREGSAPFIKLVDSFDASYTVIANDDSVFTLLTDKDAKRCKLVRVDLNNPSVWTDVIPESKDLLESAHAVNGNQLLLRYLRDVKHVLELRDLESGSLLHSIPIDIGAVDGINARRGDSIVFFRFTSILTPGIIYQCDLKNDPTQLNIFRESLVPGFDRSEFEVKQVFVPGKDGTKIPAFIAARKGISLDGSHPCEMHGYGGYGHNMMPTFSASRLVFLKHLGGVFCLANIRGGGEYGVDWHKAGARENKQTSFDDFISSAEFLVSSGYSAPKKICIEGGSNGGLLIAVCITQRPDLFGCAEPNCGPMDMLRFHKFTLGYLWTDEYGNPDNEEEFNWLIKYSPLHNVRRPWEQPGHEQTQYPATMIITADHDDRVVPMHSYKMIATMQHVLCTSLENSPQKYPIICRIQRKASHYGRSTMVQIAEVADRYGFMAKALNATWTD
[4]
  activity on alanine scan mutant (LC/MS): D. superbus PCY1-c250 activity was comparable to that of S. vaccaria PCY1
[5]
  cyclic peptide product (LC/MS): there was no detectable cyclic peptide made from No. 7 by D. superbus PCY1-c250
[1]
  production of segetalin A (LC/MS): show strong enzymatic activity ... similar to that of S. vaccaria PCY1
[6]
  activity on alanine scan mutant (LC/MS): D. superbus PCY1-c250 activity was comparable to that of S. vaccaria PCY1
[7]
  activity on alanine scan mutant (LC/MS): D. superbus PCY1-c250 activity was comparable to that of S. vaccaria PCY1
[8]
  activity on alanine scan mutant (LC/MS): D. superbus PCY1-c250 activity was comparable to that of S. vaccaria PCY1
[9]
  cyclic peptide product (LC/MS): D. superbus PCY1-c250 appeared to produce relatively more cyclic peptide than did S. vaccaria PCY1 from No. 11
